Laboratory results: patent publication US20070196354A1, “Method of treating diabetes by inhibiting degradation of at least one of crebl1, atf6, and hnf-4 alpha by htra” (priority 2003, published 2007)

Legend:
[1] = biological target: T1, CREBL1 (SEQ ID NO: 16) with c-Myc-tag ligated at the N-terminal
T1 chain: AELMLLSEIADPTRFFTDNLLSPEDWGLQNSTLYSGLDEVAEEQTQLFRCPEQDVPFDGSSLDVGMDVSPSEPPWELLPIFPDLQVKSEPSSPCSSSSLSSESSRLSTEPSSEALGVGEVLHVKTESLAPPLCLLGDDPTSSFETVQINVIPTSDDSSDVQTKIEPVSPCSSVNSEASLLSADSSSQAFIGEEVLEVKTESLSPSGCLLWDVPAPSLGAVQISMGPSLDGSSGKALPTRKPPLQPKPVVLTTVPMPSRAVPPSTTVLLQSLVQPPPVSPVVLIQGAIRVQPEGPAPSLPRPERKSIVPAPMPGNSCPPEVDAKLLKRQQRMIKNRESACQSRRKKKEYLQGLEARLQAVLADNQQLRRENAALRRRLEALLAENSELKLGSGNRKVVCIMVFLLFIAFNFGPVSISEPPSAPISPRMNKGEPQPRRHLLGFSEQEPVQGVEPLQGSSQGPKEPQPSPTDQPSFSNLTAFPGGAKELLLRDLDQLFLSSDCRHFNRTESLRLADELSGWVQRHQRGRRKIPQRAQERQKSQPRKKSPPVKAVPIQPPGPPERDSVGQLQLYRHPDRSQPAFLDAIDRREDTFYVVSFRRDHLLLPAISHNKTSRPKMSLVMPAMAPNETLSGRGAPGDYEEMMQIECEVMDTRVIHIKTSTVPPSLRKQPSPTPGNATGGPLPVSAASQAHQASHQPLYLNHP

[2] = biological target: T2, biotinylated CREBL1 (N-terminal tagged-CREBL1 with biotinylated lysine residue within the protein)
T2 chain: T1 chain

[3] = biological target: T3, HNF-4α (SEQ ID NO: 35) with N-terminal tag, as used in Example 6
T3 chain: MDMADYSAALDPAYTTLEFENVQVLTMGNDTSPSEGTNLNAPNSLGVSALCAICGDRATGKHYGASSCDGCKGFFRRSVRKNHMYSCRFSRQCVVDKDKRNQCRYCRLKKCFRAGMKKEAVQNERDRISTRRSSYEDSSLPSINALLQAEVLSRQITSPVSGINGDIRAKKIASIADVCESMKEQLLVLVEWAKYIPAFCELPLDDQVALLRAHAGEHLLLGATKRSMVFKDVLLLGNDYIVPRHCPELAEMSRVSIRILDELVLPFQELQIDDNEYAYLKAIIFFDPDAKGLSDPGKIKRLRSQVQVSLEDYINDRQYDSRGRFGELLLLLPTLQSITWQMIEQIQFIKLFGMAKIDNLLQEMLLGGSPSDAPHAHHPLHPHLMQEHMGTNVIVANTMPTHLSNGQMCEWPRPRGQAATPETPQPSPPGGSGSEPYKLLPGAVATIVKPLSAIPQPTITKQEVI

[4] = biological target: T4, ATF6 (SEQ ID NO: 18) with c-Myc-tag ligated at the N-terminal
T4 chain: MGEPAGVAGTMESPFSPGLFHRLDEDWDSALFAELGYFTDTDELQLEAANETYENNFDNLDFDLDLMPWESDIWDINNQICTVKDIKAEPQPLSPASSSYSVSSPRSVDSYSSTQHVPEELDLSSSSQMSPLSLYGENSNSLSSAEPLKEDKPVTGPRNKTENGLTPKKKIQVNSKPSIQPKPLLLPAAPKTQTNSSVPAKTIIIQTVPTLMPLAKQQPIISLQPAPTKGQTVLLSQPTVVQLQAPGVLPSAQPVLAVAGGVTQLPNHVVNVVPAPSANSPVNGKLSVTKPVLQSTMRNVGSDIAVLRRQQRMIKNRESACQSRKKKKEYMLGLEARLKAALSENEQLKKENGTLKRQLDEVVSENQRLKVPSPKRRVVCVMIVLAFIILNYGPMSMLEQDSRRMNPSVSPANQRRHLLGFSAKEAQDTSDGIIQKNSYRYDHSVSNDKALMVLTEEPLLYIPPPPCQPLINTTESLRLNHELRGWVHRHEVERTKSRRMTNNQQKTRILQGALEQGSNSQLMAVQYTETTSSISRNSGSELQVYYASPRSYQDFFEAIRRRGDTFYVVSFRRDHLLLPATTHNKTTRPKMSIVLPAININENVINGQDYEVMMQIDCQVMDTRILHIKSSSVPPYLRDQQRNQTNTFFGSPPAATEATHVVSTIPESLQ

B1: mature HtrA2 (S306A) (SEQ ID NO: 6) with histidine (His)-tag ligated at the C-terminal (protein)
chain: MAVPSPPPASPRSQYNFIADVVEKTAPAVVYIEILDRHPFLGREVPISNGSGFVVAADGLIVTNAHVVADRRRVRVRLLSGDTYEAVVTAVDPVADIATLRIQTKEPLPTLPLGRSADVRQGEFVVAMGSPFALQNTITSGIVSSAQRPARDLGLPQTNVEYIQTDAAIDFGNAGGPLVNLDGEVIGVNTMKVTAGISFAIPSDRLREFLHRGEKKNSSSGISGSQRRYIGVMMLTLSPSILAELQLREPSFPDVQHGVLIHKVILGSPAHRAGLRPGDVILAIGEQMVQNAEDVYEAVRTQSQLAVQIRRGRETLTLYVTPEVTE
In the case of B1, the “in vitro protease assay; western blotting of CREBL1 band” value [1] is reported as “the degradation of CREBL1 and ATF6 by inactive HtrA2 (mature HtrA2 (S306A)) was not observed”, the “in vitro protease assay; degradation pattern of biotinylated CREBL1 by western blotting (streptavidin HRP)” value [2] is reported as “the degradation of CREBL1 by inactive HtrA2 (mature HtrA2 (S306A)) was not observed, and the band around 50 kDa as above was not detected” and the “in vitro protease assay; western blotting of HNF-4α band” value [3] is reported as “the degradation of HNF-4α by inactive HtrA2 (mature HtrA2 (S306A)) was not observed”. The “in vitro protease assay; western blotting of ATF6 band” value [4] was “the degradation of CREBL1 and ATF6 by inactive HtrA2 (mature HtrA2 (S306A)) was not observed”.
